# Values of other authors, collected in patent US20250312434A1, “LIPOPOLYSACCHARIDE (LPS) DEFICIENT ACINETOBACTER BAUMANNII M[…]” (VAXDYN S.L., priority 2021, published 2025).
# Legend:
# [1] = test system: P. aeruginosa; conditions: 4 intraperitoneal doses of 50 μg
# [2] = test system: P. aeruginosa; conditions: 2 intraperitoneal doses of 10 ug
# [3] = test system: P. aeruginosa strain PAO1; conditions: Balb/c female mice, 4 subcutaneous doses of 50ug; intranasal PAO1
# [4] = test system: P. aeruginosa strain PAK; conditions: Balb/c female mice, 4 subcutaneous doses of 50ug; intranasal PAK
molecule,measurement,setting,value
"purified OprI: P. aeruginosa outer membrane lipoprotein OprI, purified",LD50 in immunized versus not immunized animals,[1],up to 35 fold
"purified OprF: purified OprF from P. aeruginosa PAO1 (protein, UniProt P13794 25-350, looked up) Outer membrane porin F: QGQNSVEIEAFGKRYFTDSVRNMKNADLYGGSIGYFLTDDVELALSYGEYHDVRGTYETGNKKVHGNLTSLDAIYHFGTPGVGLRPYVSAGLAHQNITNINSDSQGRQQMTMANIGAGLKYYFTENFFAKASLDGQYGLEKRDNGHQGEWMAGLGVGFNFGGSKAAPAPEPVADVCSDSDNDGVCDNVDKCPDTPANVTVDANGCPAVAEVVRVQLDVKFDFDKSKVKENSYADIKNLADFMKQYPSTSTTVEGHTDSVGTDAYNQKLSERRANAVRDVLVNEYGVEGGRVNAVGYGESRPVADNATAEGRAINRRVEAEVEAEAK",protection,[2],up to 67%
"rOprF: recombinant full-length OprF from P. aeruginosa expressed in Escherichia coli (protein, UniProt P13794 1-350, looked up, full-length, recombinant full-length OprF from P. aeruginosa expressed in Escherichia coli) MKLKNTLGVVIGSLVAASAMNAFAQGQNSVEIEAFGKRYFTDSVRNMKNADLYGGSIGYFLTDDVELALSYGEYHDVRGTYETGNKKVHGNLTSLDAIYHFGTPGVGLRPYVSAGLAHQNITNINSDSQGRQQMTMANIGAGLKYYFTENFFAKASLDGQYGLEKRDNGHQGEWMAGLGVGFNFGGSKAAPAPEPVADVCSDSDNDGVCDNVDKCPDTPANVTVDANGCPAVAEVVRVQLDVKFDFDKSKVKENSYADIKNLADFMKQYPSTSTTVEGHTDSVGTDAYNQKLSERRANAVRDVLVNEYGVEGGRVNAVGYGESRPVADNATAEGRAINRRVEAEVEAEAK",survival at 7 days,[3],50%
same,survival at 7 days,[4],60%
